B1: CIgG4B1A1(RS) (Fc fusion)
chain 1: GPPCPPCPAPEFLGGPSVFLFPPKPKDTLMISRTPEVTCVVVDVSQEDPEVQFNWYVDGVEVHNAKTKPREEQFNSTYRVVSVLTVLHQDWLNGKEYKCKVSNKGLPSSIEKTISKAKGQPREPQVYTLPPCQEEMTKNQVSLWCLVKGFYPSDIAVEWESNGQPENNYKTTPPVLDSDGSFFLYSRLTVDKSRWQEGNVFSCSVMHEALHNHYTQKSLSLSLGKRSQVQLQESGGGLVQTGGSLRLSCAVHGRTFSNTGMGWFRQAPGNERQFVAIISPSGTSTYYADSVKGRFTISRDPAKNTVYLQMNSLKMDDTAVYYCAASYGSNWSTLRHQRRNEYDAWGQGTQVAVS
chain 2: GPPCPPCPAPEFLGGPSVFLFPPKPKDTLMISRTPEVTCVVVDVSQEDPEVQFNWYVDGVEVHNAKTKPREEQFNSTYRVVSVLTVLHQDWLNGKEYKCKVSNKGLPSSIEKTISKAKGQPREPQVCTLPPSQEEMTKNQVSLSCAVKGFYPSDIAVEWESNGQPENNYKTTPPVLDSDGSFFLVSRLTVDKSRWQEGNVFSCSVMHEALHNHYTQKSLSLSLGKRSEVQLLESGGGLVQPGGSLRLSCAASGFTFGNYDMAWVRQAPGKRPEWVSSIDTGGDITHYADSVKGRFTISRDNAKNTLYLQMNSLRPEDTAVYWCATDEEYALGPNEFDYYGQGTLVTVSS
B2: NIgG4B1A1(G4S)1 (Fc fusion)
chain 1: QVQLQESGGGLVQTGGSLRLSCAVHGRTFSNTGMGWFRQAPGNERQFVAIISPSGTSTYYADSVKGRFTISRDPAKNTVYLQMNSLKMDDTAVYYCAASYGSNWSTLRHQRRNEYDAWGQGTQVAVSGGGGSGPPCPPCPAPEFLGGPSVFLFPPKPKDTLMISRTPEVTCVVVDVSQEDPEVQFNWYVDGVEVHNAKTKPREEQFNSTYRVVSVLTVLHQDWLNGKEYKCKVSNKGLPSSIEKTISKAKGQPREPQVYTLPPCQEEMTKNQVSLWCLVKGFYPSDIAVEWESNGQPENNYKTTPPVLDSDGSFFLYSRLTVDKSRWQEGNVFSCSVMHEALHNHYTQKSLSLSLGK
chain 2: EVQLLESGGGLVQPGGSLRLSCAASGFTFGNYDMAWVRQAPGKRPEWVSSIDTGGDITHYADSVKGRFTISRDNAKNTLYLQMNSLRPEDTAVYWCATDEEYALGPNEFDYYGQGTLVTVSSGGGGSGPPCPPCPAPEFLGGPSVFLFPPKPKDTLMISRTPEVTCVVVDVSQEDPEVQFNWYVDGVEVHNAKTKPREEQFNSTYRVVSVLTVLHQDWLNGKEYKCKVSNKGLPSSIEKTISKAKGQPREPQVCTLPPSQEEMTKNQVSLSCAVKGFYPSDIAVEWESNGQPENNYKTTPPVLDSDGSFFLVSRLTVDKSRWQEGNVFSCSVMHEALHNHYTQKSLSLSLGK
B3: CIgG4B1A1(G4S)1 (Fc fusion)
chain 1: GPPCPPCPAPEFLGGPSVFLFPPKPKDTLMISRTPEVTCVVVDVSQEDPEVQFNWYVDGVEVHNAKTKPREEQFNSTYRVVSVLTVLHQDWLNGKEYKCKVSNKGLPSSIEKTISKAKGQPREPQVYTLPPCQEEMTKNQVSLWCLVKGFYPSDIAVEWESNGQPENNYKTTPPVLDSDGSFFLYSRLTVDKSRWQEGNVFSCSVMHEALHNHYTQKSLSLSLGKGGGGSQVQLQESGGGLVQTGGSLRLSCAVHGRTFSNTGMGWFRQAPGNERQFVAIISPSGTSTYYADSVKGRFTISRDPAKNTVYLQMNSLKMDDTAVYYCAASYGSNWSTLRHQRRNEYDAWGQGTQVAVS
chain 2: GPPCPPCPAPEFLGGPSVFLFPPKPKDTLMISRTPEVTCVVVDVSQEDPEVQFNWYVDGVEVHNAKTKPREEQFNSTYRVVSVLTVLHQDWLNGKEYKCKVSNKGLPSSIEKTISKAKGQPREPQVCTLPPSQEEMTKNQVSLSCAVKGFYPSDIAVEWESNGQPENNYKTTPPVLDSDGSFFLVSRLTVDKSRWQEGNVFSCSVMHEALHNHYTQKSLSLSLGKGGGGSEVQLLESGGGLVQPGGSLRLSCAASGFTFGNYDMAWVRQAPGKRPEWVSSIDTGGDITHYADSVKGRFTISRDNAKNTLYLQMNSLRPEDTAVYWCATDEEYALGPNEFDYYGQGTLVTVSS
B4: NIgG4F6A1(G4S)3 (Fc fusion)
chain 1: DVQLQESGGGLVQAGGSLRLSCAASGLTFGSYDMGWYRQAPGKQRELVGRIRNDGITYYADSVKGRFTMSRDNAKNTVYLQMNSLKPEDTAVYYCAADGTGLGHYDYWGQGTQVTVSGGGGSGGGGSGGGGSGPPCPPCPAPEFLGGPSVFLFPPKPKDTLMISRTPEVTCVVVDVSQEDPEVQFNWYVDGVEVHNAKTKPREEQFNSTYRVVSVLTVLHQDWLNGKEYKCKVSNKGLPSSIEKTISKAKGQPREPQVYTLPPCQEEMTKNQVSLWCLVKGFYPSDIAVEWESNGQPENNYKTTPPVLDSDGSFFLYSRLTVDKSRWQEGNVFSCSVMHEALHNHYTQKSLSLSLGK
chain 2: EVQLLESGGGLVQPGGSLRLSCAASGFTFGNYDMAWVRQAPGKRPEWVSSIDTGGDITHYADSVKGRFTISRDNAKNTLYLQMNSLRPEDTAVYWCATDEEYALGPNEFDYYGQGTLVTVSSGGGGSGGGGSGGGGSGPPCPPCPAPEFLGGPSVFLFPPKPKDTLMISRTPEVTCVVVDVSQEDPEVQFNWYVDGVEVHNAKTKPREEQFNSTYRVVSVLTVLHQDWLNGKEYKCKVSNKGLPSSIEKTISKAKGQPREPQVCTLPPSQEEMTKNQVSLSCAVKGFYPSDIAVEWESNGQPENNYKTTPPVLDSDGSFFLVSRLTVDKSRWQEGNVFSCSVMHEALHNHYTQKSLSLSLGK
B5: CIgG4F6A1(RS) (Fc fusion)
chain 1: GPPCPPCPAPEFLGGPSVFLFPPKPKDTLMISRTPEVTCVVVDVSQEDPEVQFNWYVDGVEVHNAKTKPREEQFNSTYRVVSVLTVLHQDWLNGKEYKCKVSNKGLPSSIEKTISKAKGQPREPQVYTLPPCQEEMTKNQVSLWCLVKGFYPSDIAVEWESNGQPENNYKTTPPVLDSDGSFFLYSRLTVDKSRWQEGNVFSCSVMHEALHNHYTQKSLSLSLGKRSDVQLQESGGGLVQAGGSLRLSCAASGLTFGSYDMGWYRQAPGKQRELVGRIRNDGITYYADSVKGRFTMSRDNAKNTVYLQMNSLKPEDTAVYYCAADGTGLGHYDYWGQGTQVTVS
chain 2: B1 chain 2
B6: CIgG4F6A1(G4S)1 (Fc fusion)
chain 1: GPPCPPCPAPEFLGGPSVFLFPPKPKDTLMISRTPEVTCVVVDVSQEDPEVQFNWYVDGVEVHNAKTKPREEQFNSTYRVVSVLTVLHQDWLNGKEYKCKVSNKGLPSSIEKTISKAKGQPREPQVYTLPPCQEEMTKNQVSLWCLVKGFYPSDIAVEWESNGQPENNYKTTPPVLDSDGSFFLYSRLTVDKSRWQEGNVFSCSVMHEALHNHYTQKSLSLSLGKGGGGSDVQLQESGGGLVQAGGSLRLSCAASGLTFGSYDMGWYRQAPGKQRELVGRIRNDGITYYADSVKGRFTMSRDNAKNTVYLQMNSLKPEDTAVYYCAADGTGLGHYDYWGQGTQVTVS
chain 2: B3 chain 2
B7: CIgG4F6A1(G4S)2 (Fc fusion)
chain 1: GPPCPPCPAPEFLGGPSVFLFPPKPKDTLMISRTPEVTCVVVDVSQEDPEVQFNWYVDGVEVHNAKTKPREEQFNSTYRVVSVLTVLHQDWLNGKEYKCKVSNKGLPSSIEKTISKAKGQPREPQVYTLPPCQEEMTKNQVSLWCLVKGFYPSDIAVEWESNGQPENNYKTTPPVLDSDGSFFLYSRLTVDKSRWQEGNVFSCSVMHEALHNHYTQKSLSLSLGKGGGGSGGGGSDVQLQESGGGLVQAGGSLRLSCAASGLTFGSYDMGWYRQAPGKQRELVGRIRNDGITYYADSVKGRFTMSRDNAKNTVYLQMNSLKPEDTAVYYCAADGTGLGHYDYWGQGTQVTVS
chain 2: GPPCPPCPAPEFLGGPSVFLFPPKPKDTLMISRTPEVTCVVVDVSQEDPEVQFNWYVDGVEVHNAKTKPREEQFNSTYRVVSVLTVLHQDWLNGKEYKCKVSNKGLPSSIEKTISKAKGQPREPQVCTLPPSQEEMTKNQVSLSCAVKGFYPSDIAVEWESNGQPENNYKTTPPVLDSDGSFFLVSRLTVDKSRWQEGNVFSCSVMHEALHNHYTQKSLSLSLGKGGGGSGGGGSEVQLLESGGGLVQPGGSLRLSCAASGFTFGNYDMAWVRQAPGKRPEWVSSIDTGGDITHYADSVKGRFTISRDNAKNTLYLQMNSLRPEDTAVYWCATDEEYALGPNEFDYYGQGTLVTVSS
B8: CIgG4F6A1(G4S)3 (Fc fusion)
chain 1: GPPCPPCPAPEFLGGPSVFLFPPKPKDTLMISRTPEVTCVVVDVSQEDPEVQFNWYVDGVEVHNAKTKPREEQFNSTYRVVSVLTVLHQDWLNGKEYKCKVSNKGLPSSIEKTISKAKGQPREPQVYTLPPCQEEMTKNQVSLWCLVKGFYPSDIAVEWESNGQPENNYKTTPPVLDSDGSFFLYSRLTVDKSRWQEGNVFSCSVMHEALHNHYTQKSLSLSLGKGGGGSGGGGSGGGGSDVQLQESGGGLVQAGGSLRLSCAASGLTFGSYDMGWYRQAPGKQRELVGRIRNDGITYYADSVKGRFTMSRDNAKNTVYLQMNSLKPEDTAVYYCAADGTGLGHYDYWGQGTQVTVS
chain 2: GPPCPPCPAPEFLGGPSVFLFPPKPKDTLMISRTPEVTCVVVDVSQEDPEVQFNWYVDGVEVHNAKTKPREEQFNSTYRVVSVLTVLHQDWLNGKEYKCKVSNKGLPSSIEKTISKAKGQPREPQVCTLPPSQEEMTKNQVSLSCAVKGFYPSDIAVEWESNGQPENNYKTTPPVLDSDGSFFLVSRLTVDKSRWQEGNVFSCSVMHEALHNHYTQKSLSLSLGKGGGGSGGGGSGGGGSEVQLLESGGGLVQPGGSLRLSCAASGFTFGNYDMAWVRQAPGKRPEWVSSIDTGGDITHYADSVKGRFTISRDNAKNTLYLQMNSLRPEDTAVYWCATDEEYALGPNEFDYYGQGTLVTVSS

molecular target: mixture of three Der p 2 specific recombinant human IgE clones H10, H12, P4E (human) (UniProt P01854); test: RBL-SX38 IgE displacement, FACS
Sequence (P01854 other isoform, or with tags, fused parts or gaps): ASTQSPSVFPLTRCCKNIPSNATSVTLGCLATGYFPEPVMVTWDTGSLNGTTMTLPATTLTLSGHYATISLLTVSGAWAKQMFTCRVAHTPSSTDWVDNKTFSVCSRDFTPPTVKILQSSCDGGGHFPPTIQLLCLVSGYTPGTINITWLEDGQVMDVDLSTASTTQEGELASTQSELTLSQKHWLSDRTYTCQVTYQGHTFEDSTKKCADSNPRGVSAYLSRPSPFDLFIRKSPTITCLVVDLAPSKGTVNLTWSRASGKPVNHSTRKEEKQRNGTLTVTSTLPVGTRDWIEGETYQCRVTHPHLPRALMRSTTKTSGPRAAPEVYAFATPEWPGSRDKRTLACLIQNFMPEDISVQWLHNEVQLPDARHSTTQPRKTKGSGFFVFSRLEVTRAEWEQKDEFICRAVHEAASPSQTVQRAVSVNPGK

Binder	EC50	Max effect/effect 1 µM
B1	84.9 nM	92%
B2	3 nM	99%
B3	22.4 nM	99%
B4	2.7 nM	87%
B5		96%
B6	59.9 nM	95%
B7	16.6 nM	98%
B8	7.9 nM	90%

molecular target: IgE on basophils of allergic donors (human) (UniProt P01854); test: displacement of IgE from FcεRI on basophils, whole blood of an allergic donor, flow cytometry of surface IgE [panel B]
Sequence (P01854 1-428): as the sequence (P01854 other isoform, or with tags, fused parts or gaps) above, with K428L counted along it

Binder	EC50 (read off the curve)
B1	10 nM
B2	4 nM
B3	4 nM

molecular target: IgE on basophils of allergic donors (human) (UniProt P01854); test: displacement of IgE from FcεRI on basophils, whole blood of an allergic donor, flow cytometry of surface IgE [panel C]

Binder	EC50 (read off the curve)
B1	20 nM
B2	3 nM
B3	4 nM

Source: US20250171562A1
